According to article PMC8402609 (Vaccines, 2021):

Columns and labels:
Test in all cases: SPR
Conditions in all cases: both partners purified
[1] = target: T1, 8-residue peptide 3D7-MSP2(215-222), minimal 4D11 epitope (Plasmodium falciparum 3D7)
T1 construct: source: synthetic peptide
T1 chain: NKENCGAA

[2] = target: T2, 3D7 merozoite surface protein 2 (MSP2) (Plasmodium falciparum 3D7, UniProt P50498)
T2 construct: also called 3D7 MSP2; 3D7-MSP2

[3] = target: T3, 3D7-MSP2(207-222) (WT) 16-residue peptide (Plasmodium falciparum 3D7)
T3 construct: source: synthetic peptide (Fmoc solid phase, in-house, reverse-phase purified)
T3 chain: SQKECTDGNKENCGAA

T2 sequence (P50498 21-246): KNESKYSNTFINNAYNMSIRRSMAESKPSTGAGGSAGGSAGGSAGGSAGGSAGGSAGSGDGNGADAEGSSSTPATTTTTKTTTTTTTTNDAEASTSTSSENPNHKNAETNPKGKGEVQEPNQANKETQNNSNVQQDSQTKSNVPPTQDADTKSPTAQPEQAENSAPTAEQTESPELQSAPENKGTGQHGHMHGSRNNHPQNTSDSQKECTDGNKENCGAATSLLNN

B1: mouse monoclonal antibody 4D11 IgG (antibody, V domains shown)
VH: QVRLQQSGAELVKPGASVKLSCTASGFNIKDDYMHWVKQRPEQGLEWIGRIDPANGNTQYAPKFQDKATITADTSSNTAYLQLTSLTSEDTAVYYCARGGLLRWGQGTSVTVSS
VL: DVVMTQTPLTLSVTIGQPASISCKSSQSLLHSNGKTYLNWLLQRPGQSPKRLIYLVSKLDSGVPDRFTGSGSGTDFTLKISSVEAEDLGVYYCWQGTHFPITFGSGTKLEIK
In the case of B1, the Kd [1] is reported as 240 nM, the binding result [2] is reported as “binds” and the Kd [3] is reported as 900 nM.
